Assay results reported in patent publication US12065505B2, “Antibodies and antigen binding peptides for factor XIa inhibitors and uses thereof” (Bristol-Myers Squibb Company, priority 2021, dated 2024).
Like-named read-outs stand apart in the source and are kept apart here.

Experiment: SPR (Biacore) Protein A mAb capture, Compound A injected
Conditions: 37° C., binding to Compound A, for rank ordering only
Protocol: The binding of hybridoma expressed 26D5 parent mAb (VH SEQ ID NO: 83 and VL SEQ ID NO: 98 in IgG1 f format)(P1-072224) and affinity matured mAbs to Compound A was examined by SPR (Biacore™) using a protein A capture method. The running buffer was 1×PBS (phosphate buffered saline, pH 7.4) with 0.05% Tween 20 and 2% DMSO. Binding experiments were carried out at 37° C. Protein A was coated on a CM5 S-series sensor chip (Cytiva, Cat. No. 29149603) at high density (2000+ RUs of protein A). The immobilization of protein A was carried out using the standard amine coupling immobilization procedure recommended by the manufacturer. The affinity matured antibody was then captured at a concentration of 2 ug/mL on the protein A surface at a flow rate of 3 uL/min for 2 minutes. Compound A was then injected over the captured antibody at concentrations spanning 100-3 nM (100, 50, 25, 12.5, 6.25, 3.125 nM) (FIG. 10) and for screening concentrations spanning 100-3 nM (100, 33, 11 nM) for 2 minutes at a flow rate of 100 uL/min and allowed to dissociate for at least 450 seconds. The chip surface was regenerated after each cycle with a 40 second pulse of 10 mM Glycine, pH 1.5. Background binding to the protein A surface alone was used to subtract non-specific binding. All experiments were run on a Biacore T200 surface plasmon resonance instrument using Biacore T200 Control software v. 2. Data analysis was performed using Biacore T200 evaluation software v 3.1. Apparent affinities were determined for rank ordering only since dissociation rates were too slow to be measured by Biacore. The names of the mAbs in Table 10 refer to mAbs having the H and L chain sequences of the corresponding Fabs in Table 3 in an IgG1f format.

[1] = apparent affinity, read-out: KD

| Molecule | Kd [1] [pM] | Kd (apparent) [s⁻¹] | Ka (apparent) [M⁻¹ s⁻¹] |
| --- | --- | --- | --- |
| 26D5-296-B07-mAb: human IgG1f/kappa mAb; VH SEQ ID NO: 68, VL SEQ ID NO: 93 (antibody, V domains shown) VH: EVQLVESGGGLIQPGGSLRLSCAASGFQVSSNAMSWVRQAPGKGLEWVSFIYSGGRTYYADSVKGRFTISRDNSKNTLYLQMNSLRAEDTAVYYCARAGFGGGDYWGQGTLVTVSS VL: DIQMTQSPSSVSASVGDRVTITCRASQGISSWLAWYQQKPGKAPKLLIYAASSLQSGVPSRFSGSGSGTDFTLTISSLQPEDFATYYCQQHNSFPLTFGGGTKVEIK | 1800 | 0.00042 | 290000 |
| 26D5-296-C08-mAb: human IgG1f/kappa mAb; VH SEQ ID NO: 66, VL SEQ ID NO: 95 (antibody, V domains shown) VH: EVQLVESGGGLIQPGGSLRLSCAASGFQVSSNAMSWVRQAPGKGLEWVSFIYSGGRTYYADSVKGRFTISRDNSKNTLYLQMNSLRAEDTAVYYCARGGFGGGDYWGQGTLVTVSS VL: DIQMTQSPSSVSASVGDRVTITCRASQYIESNLAWYQQKPGKAPKLLIYAASSLQSGVPSRFSGSGSGTDFTLTISSLQPEDFATYYCQQANSFPLTFGGGTKVEIK | 590 | 0.00031 | 530000 |
| 26D5-296-G07-mAb: human IgG1f/kappa mAb; VH SEQ ID NO: 65, VL SEQ ID NO: 94 (antibody, V domains shown) VH: EVQLVESGGGLIQPGGSLRLSCAASGFTVSENYMSWVRQAPGKGLEWVSFIYSGGRTYYADSVKGRFTISRDNSKNTLYLQMNSLRAEDTAVYYCARAGFGGGDYWGQGTLVTVSS VL: DIQMTQSPSSVSASVGDRVTITCRASQYISSNLAWYQQKPGKAPKLLIYAASSLQSGVPSRFSGSGSGTDFTLTISSLQPEDFATYYCQQANSFPLTFGGGTKVEIK | 380 | 0.00032 | 850000 |
| 26D5-296-H03-mAb: human IgG1f/kappa mAb; VH SEQ ID NO: 63, VL SEQ ID NO: 88 (antibody, V domains shown) VH: EVQLVESGGGLIQPGGSLRLSCAASGFTVSSNAMSWVRQAPGKGLEWVSFIYPGGRTYYADSVKGRFTISRDNSKNTLYLQMNSLRAEDTAVYYCARGGFGGGDYWGQGTLVTVSS VL: DIQMTQSPSSVSASVGDRVTITCRASQGISSNLAWYQQKPGKAPKLLIYAASSLQSGVPSRFSGSGSGTDFTLTISSLQPEDFATYYCQQANSFPLTFGGGTKVEIK | 1100 | 0.00018 | 160000 |
| 26D5-295-G07-mAb: human IgG1f/kappa mAb; VH SEQ ID NO: 69, VL SEQ ID NO: 88 (antibody, V domains shown) VH: EVQLVESGGGLIQPGGSLRLSCAASGFTVSSNYMSWVRQAPGKGLEWVSFIYPGGRTYYADSVKGRFTISRDNSKNTLYLQMNSLRAEDTAVYYCARGGFGGGDYWGQGTLVTVSS VL: DIQMTQSPSSVSASVGDRVTITCRASQGISSNLAWYQQKPGKAPKLLIYAASSLQSGVPSRFSGSGSGTDFTLTISSLQPEDFATYYCQQANSFPLTFGGGTKVEIK | 670 | 0.00043 | 630000 |
| 26D5-295-F07-mAb: human IgG1f/kappa mAb; VH SEQ ID NO: 64, VL SEQ ID NO: 88 (antibody, V domains shown) VH: EVQLVESGGGLIQPGGSLRLSCAASGFTVSENAMSWVRQAPGKGLEWVSFIYSGGRTYYADSVKGRFTISRDNSKNTLYLQMNSLRAEDTAVYYCARGGFGGGDYWGQGTLVTVSS VL: DIQMTQSPSSVSASVGDRVTITCRASQGISSNLAWYQQKPGKAPKLLIYAASSLQSGVPSRFSGSGSGTDFTLTISSLQPEDFATYYCQQANSFPLTFGGGTKVEIK | 940 | 0.00017 | 180000 |
| 26D5-295-C07-mAb: human IgG1f/kappa mAb; VH SEQ ID NO: 67, VL SEQ ID NO: 88 (antibody, V domains shown) VH: EVQLVESGGGLIQPGGSLRLSCAASGFTVSSNAMSWVRQAPGKGLEWVSFIYSGGRTYYADSVKGRFTISRDNSKNTLYLQMNSLRAEDTAVYYCARGGFGGGDYWGQGTLVTVSS VL: DIQMTQSPSSVSASVGDRVTITCRASQGISSNLAWYQQKPGKAPKLLIYAASSLQSGVPSRFSGSGSGTDFTLTISSLQPEDFATYYCQQANSFPLTFGGGTKVEIK | 1600 | 0.00033 | 200000 |
| 25D5-296-A07-mAb: human IgG1f/kappa mAb; VH SEQ ID NO: 60, VL SEQ ID NO: 93 (antibody, V domains shown) VH: EVQLVESGGGLIQPGGSLRLSCAASGFTVSSNAMSWVRQAPGKGLEWVSFIYPGGRTYYADSVKGRFTISRDNSKNTLYLQMNSLRAEDTAVYYCARAGFGGGDYWGQGTLVTVSS VL: DIQMTQSPSSVSASVGDRVTITCRASQGISSWLAWYQQKPGKAPKLLIYAASSLQSGVPSRFSGSGSGTDFTLTISSLQPEDFATYYCQQHNSFPLTFGGGTKVEIK | 1600 | 0.00027 | 170000 |
| 26D5-295-E07-mAb: human IgG1f/kappa mAb; VH SEQ ID NO: 66, VL SEQ ID NO: 88 (antibody, V domains shown) VH: EVQLVESGGGLIQPGGSLRLSCAASGFQVSSNAMSWVRQAPGKGLEWVSFIYSGGRTYYADSVKGRFTISRDNSKNTLYLQMNSLRAEDTAVYYCARGGFGGGDYWGQGTLVTVSS VL: DIQMTQSPSSVSASVGDRVTITCRASQGISSNLAWYQQKPGKAPKLLIYAASSLQSGVPSRFSGSGSGTDFTLTISSLQPEDFATYYCQQANSFPLTFGGGTKVEIK | 1200 | 0.00023 | 190000 |

Now those with a lower Kd [1], led by results:

| Kd [1] [pM] | Kd (apparent) [s⁻¹] | Molecule | Ka (apparent) [M⁻¹ s⁻¹] |
| --- | --- | --- | --- |
| < 50 | <5e-05 | 26D5-75602-348-F04-mAb: human IgG1f/kappa mAb; VH SEQ ID NO: 58, VL SEQ ID NO: 88 (antibody, V domains shown) VH: EVQLVESGGGLIQPGGSLRLSCAASGFTVSSNQFSWVRQAPGKGLEWVSYFYPGGRTYYADSVKGRFTISRDNSKNTLYLQMNSLRAEDTAVYYCAKAGFGGGDYWGQGTLVTVSS VL: DIQMTQSPSSVSASVGDRVTITCRASQGISSNLAWYQQKPGKAPKLLIYAASSLQSGVPSRFSGSGSGTDFTLTISSLQPEDFATYYCQQANSFPLTFGGGTKVEIK | 910000 |
| 100 | 0.00011 | 25D5-75592-0348-A04-mAb: human IgG1f/kappa mAb; VH SEQ ID NO: 61, VL SEQ ID NO: 89 (antibody, V domains shown) VH: EVQLVESGGGLIQPGGSLRLSCAASGFTVSSNAIAWVRQAPGKGLEWVAYIYPGGRTYYADSVKGRFTISRDNSKNTLYLQMNSLRAEDTAVYYCVTAGFGGGDYWGQGTLVTVSS VL: DIQMTQSPSSVSASVGDRVTITCRASQGISSNNQWYQQKPGKAPKLLIYYASSLQSGVPSRFSGSGSGTDFTLTISSLQPEDFATYYCQQGNEFPLTFGGGTKVEIK | 1e+06 |
| 100 | 0.00024 | 26D5-75746-0348-C07-mAb: human IgG1f/kappa mAb; VH SEQ ID NO: 57, VL SEQ ID NO: 92 (antibody, V domains shown) VH: EVQLVESGGGLIQPGGSLRLSCAASGFTVSSNAFSWVRQAPGKGLEWVSYIYSGGRTYYADSVKGRFTISRDNSKNTLYLQMNSLRAEDTAVYYCAAAGFGGGDYWGQGTLVTVSS VL: DIQMTQSPSSVSASVGDRVTITCRASQGISSQVAWYQQKPGKAPKLLIYPASNLWSGVPSRFSGSGSGTDFTLTISSLQPEDFATYYCQQANNFPLTFGGGTKVEIK | 2.4e+06 |
| < 60 | <5e-05 | 26D5-75576-348-B03-mAb: human IgG1f/kappa mAb; VH SEQ ID NO: 59, VL SEQ ID NO: 88 (antibody, V domains shown) VH: EVQLVESGGGLIQPGGSLRLSCAASGFTVSSNDMSYVRQAPGKGLEWVAYIYSGGRTYYADSVKGRFTISRDNSKNTLYLQMNSLRAEDTAVYYCVTAGFGGGDYWGQGTLVTVSS VL: DIQMTQSPSSVSASVGDRVTITCRASQGISSNLAWYQQKPGKAPKLLIYAASSLQSGVPSRFSGSGSGTDFTLTISSLQPEDFATYYCQQANSFPLTFGGGTKVEIK | 880000 |
| 110 | 0.00017 | 26D5-075017-343-F04-mAb: human IgG1f/kappa mAb; VH SEQ ID NO: 60, VL SEQ ID NO: 91 (antibody, V domains shown) VH: EVQLVESGGGLIQPGGSLRLSCAASGFTVSSNAMSWVRQAPGKGLEWVSFIYPGGRTYYADSVKGRFTISRDNSKNTLYLQMNSLRAEDTAVYYCARAGFGGGDYWGQGTLVTVSS VL: DIQMTQSPSSVSASVGDRVTITCRASQGISSNLAWWQQKPGKAPKLLIYAASSLQSGVPSRFSGSGSGTDFTLTISSLQPEDFATYYCQQANSFPLTFGGGTKVEIK | 1.5e+06 |
